Measured values taken from patent publication US10590192B2, “Midkine antibody” (Cellmid Limited, priority 2014, dated 2020).
Numbering of substitutions follows the chain as printed.

T1: murine MK (muMK) (Mus musculus, UniProt P12025)
T1 sequence (P12025 23-140): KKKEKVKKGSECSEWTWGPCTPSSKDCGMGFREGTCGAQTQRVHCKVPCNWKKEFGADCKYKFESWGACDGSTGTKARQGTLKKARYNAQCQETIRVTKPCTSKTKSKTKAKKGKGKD

T2: recombinant human MK (huMK) (Homo sapiens, UniProt P21741)
T2 sequence (P21741 21-143): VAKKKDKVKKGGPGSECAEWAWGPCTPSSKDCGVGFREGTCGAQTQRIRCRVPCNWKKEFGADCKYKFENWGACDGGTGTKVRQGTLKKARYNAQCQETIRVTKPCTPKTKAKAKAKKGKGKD

B1: IP14-H4L4: humanised IP14 antibody: VH SEQ ID NO: 5, VL SEQ ID NO: 13 (antibody, V domains shown)
VH: QVQLVQSGAEVKKPGASVKVSCKASGYTFTSYYMHWVRQAPGQGLEWMGIIHPSGGSTSYAQKFQGRVTMTRDTSTSTVYMELSSLRSEDTAVYYCARWSAKRGDFWGQGTLVTVSS
VL: EIVLTQSPDFQSVTPKEKVNITCRASESISNNLHWYQQKPHQSPKLLIYYASQSISGVPSRFSGSGSGTDFNLTINSVEAEDAATYYCQQSNSWPLTFGGGTKLEIKR
modifications: Variable region heavy chain humanised variant 4 (VH4); Variable region light chain humanised variant 4 (VL4)
B2: IP14-H4L1: humanised IP14 antibody: VH SEQ ID NO: 5, VL SEQ ID NO: 10 (antibody, V domains shown)
VH: B1 VH
VL: EIVLTQSPATLSLSPGERANLSCRASESISNNLHWYQQKPHQAPRLLIKYASQSISGIPARFSGSGPGTDFNLTISSVEPEDFAVYYCQQSNSWPLTFGGGTKLEIKR
modifications: Variable region heavy chain humanised variant 4 (VH4); Variable region light chain humanised variant 1 (VL1)
B3: IP14-H4L2: humanised IP14 antibody: VH SEQ ID NO: 5, VL SEQ ID NO: 11 (antibody, V domains shown)
VH: B1 VH
VL: B2 VL with N20T, H41G, N72T
modifications: Variable region heavy chain humanised variant 4 (VH4); Variable region light chain humanised variant 2 (VL2)
B4: IP14-H4L6: humanised IP14 antibody: VH SEQ ID NO: 5, VL SEQ ID NO: 15 (antibody, V domains shown)
VH: B1 VH
VL: EIVLTQSPSTLSASVGDRVNITCRASESISNNLHWYQQKPHKAPKLLIYYASQSISGVPSRFSGSGSGTEFNLTISSVQPDDFATYYCQQSNSWPLTFGQGTKVEIKR
modifications: Variable region heavy chain humanised variant 4 (VH4); Variable region light chain humanised variant 6 (VL6)
B5: IP14-H4L3: humanised IP14 antibody: VH SEQ ID NO: 5, VL SEQ ID NO: 12 (antibody, V domains shown)
VH: B1 VH
VL: B2 VL with E1D, N20T, H41G, K49Y, N72T, V78L
modifications: Variable region heavy chain humanised variant 4 (VH4); Variable region light chain humanised variant 3 (VL3)
B6: IP14-H5L5: humanised IP14 antibody: VH SEQ ID NO: 6, VL SEQ ID NO: 14 (antibody, V domains shown)
VH: QVQLVQSGGGLVQPGGSLRLSCAASGQSFSSYWMNWVRQAPGQGLEWIGMIHPSDSETILNQKFKDKATLTVDISKNTAYLQMNSLRAEDTAVYYCSSWSAKRGDFWGQGTLVTVSS
VL: EIVLTQSPATLSLSPGERATLSCRASQGVSSNLAWYQQKPGQAPRLLIYDASNRATGIPARFSGSGPGTDFTLTISSLEPEDFAVYYCQQSNSWPLTFGQGTKVEIKR
modifications: Variable region heavy chain humanised variant 5 (VH5); Variable region light chain humanised variant 5 (VL5)
B7: IP14-H4L5: humanised IP14 antibody: VH SEQ ID NO: 5, VL SEQ ID NO: 14 (antibody, V domains shown)
VH: B1 VH
VL: B6 VL
modifications: Variable region heavy chain humanised variant 4 (VH4); Variable region light chain humanised variant 5 (VL5)
B8: IP14-H2L5: humanised IP14 antibody: VH SEQ ID NO: 3, VL SEQ ID NO: 14 (antibody, V domains shown)
VH: QVQLVQSGAEVKKPGASVKVSCKASGQSFSSYWMNWVRQAPGQGLEWIGMIHPSDSETILNQKFKDKATLTVDISTSTAYMELSSLRSEDTAVYYCSSWSAKRGDFWGQGTLVTVSS
VL: B6 VL
modifications: Variable region heavy chain humanised variant 2 (VH2); Variable region light chain humanised variant 5 (VL5)
B9: IP14-H6L5: humanised IP14 antibody: VH SEQ ID NO: 7, VL SEQ ID NO: 14 (antibody, V domains shown)
VH: B6 VH with Q13K, G16H, Q43K, T71S, S75A, T78S
VL: B6 VL
modifications: Variable region heavy chain humanised variant 6 (VH6); Variable region light chain humanised variant 5 (VL5)
B10: IP14-H1L5: humanised IP14 antibody: VH SEQ ID NO: 2, VL SEQ ID NO: 14 (antibody, V domains shown)
VH: B8 VH with A16H, L86P
VL: B6 VL
modifications: Variable region heavy chain humanised variant 1 (VH1); Variable region light chain humanised variant 5 (VL5)
B11: IP14-H3L4: humanised IP14 antibody: VH SEQ ID NO: 4, VL SEQ ID NO: 13 (antibody, V domains shown)
VH: B8 VH with I48M, A68V, L70M, V72R, I74T, A79V, S97A, S98R
VL: B1 VL
modifications: Variable region heavy chain humanised variant 3 (VH3); Variable region light chain humanised variant 4 (VL4)
B12: IP14-H3L8: humanised IP14 antibody: VH SEQ ID NO: 4, VL SEQ ID NO: 17 (antibody, V domains shown)
VH: B8 VH with I48M, A68V, L70M, V72R, I74T, A79V, S97A, S98R
VL: B2 VL with E1D, N20T, K49Y, I58V, P67S, N72T, G100Q, L104V
modifications: Variable region heavy chain humanised variant 3 (VH3); Variable region light chain humanised variant 8 (VL8)
B13: IP14-H3L7: humanised IP14 antibody: VH SEQ ID NO: 4, VL SEQ ID NO: 16 (antibody, V domains shown)
VH: B8 VH with I48M, A68V, L70M, V72R, I74T, A79V, S97A, S98R
VL: B2 VL with E1D, K49Y, I58V, P67S, G100Q, L104V
modifications: Variable region heavy chain humanised variant 3 (VH3); Variable region light chain humanised variant 7 (VL7)
B14: IP14-H3L5: humanised IP14 antibody: VH SEQ ID NO: 4, VL SEQ ID NO: 14 (antibody, V domains shown)
VH: B8 VH with I48M, A68V, L70M, V72R, I74T, A79V, S97A, S98R
VL: B6 VL
modifications: Variable region heavy chain humanised variant 3 (VH3); Variable region light chain humanised variant 5 (VL5)

What follows are molecules tested against T1, murine MK (muMK) (assay: ELISA binding of humanised anti-MK antibodies to muMK). Conditions: ELISA, plates coated with 2 ug/mL muMK; read-out: Binding affinity for muMK, ELISA EC50.
Experimental: (§1) The binding specificity and affinity of the humanised anti-MK antibodies to recombinant human MK (huMK) and murine MK (muMK) was assessed by ELISA. ELISA plates (Nunc Immuno MaxiSorp 96 well flat-bottom were coated with 100 uL of 2 ug/mL of either huMK or muMK in 2% BSA/PBS (overnight at room temperature). After washing, blocking (1 h at 37° C.), and washing again, the humanised anti-MK and chimeric antibodies described in Example 1 were analysed for binding to huMK or muMK at concentrations ranging between 3 μg/ml and 0.00004 μg/ml in 2% BSA/PBS (1 h at 37° C.). After washing, the binding of antibody was detected with goat anti-mouse IgG (Fab specific)-HRP conjugate (Sigma, Cat. No. A9917) and SigmaFast OPD substrate (Sigma, Cat. No. P9187). The reaction was stopped with 3 M HCl, absorbance read at 490 nm on a Dynex Technologies MRX TC II plate reader and the binding curves plotted. Binding affinity data for the humanised anti-MK antibodies to huMK and muMK are presented in Table 6 and Table 7 respectively, and in FIG. 3.
(§2) KD values for hIP14-H5L8, hIP14-H6L3 and hIP14-H6L8 was then compared with the KD values obtained for the corresponding murine IP14 precursor antibody and the chimeric antibody using the methods described in Example 2. […] Based on this finding, these candidate antibodies were produced to 100 mg scale to enable further testing in functional assays to determine biological function.

EC50, > 10 nM:
B1, B2, B3, B4, B5, B6, B7, B8, B9, B10

The molecules below were run against T2, recombinant human MK (huMK) (assay: ELISA binding of humanised anti-MK antibodies to huMK). Conditions: ELISA, plates coated with 2 ug/mL huMK; read-out: Binding affinity for huMK, ELISA EC50.
Experimental: as §1, §2

EC50, > 10 nM:
B11, B12, B1, B13, B2, B3, B4, B5, B6, B7, B14, B8, B9, B10
